What all share (experiment): BLI
For orientation: BLI is a label-free optical method that tracks binding on a fibre tip over time.

The target in assay [1] is CAP256-VRC26.01 Fab (human).
Assay [2] has as its target CAP256-VRC26.03 Fab (human).
In assay [3] the target is CAP256-VRC26.10 Fab (human).

This passage reports Kd, koff and kon results from PMC5250619.

Take “BG505.SOSIP.664 soluble HIV-1 Env trimer (from UniProt Q2N0S6 1-860) (complex)”: the dissociation constant (Kd) (commonly the constant that tells how readily two partners part at equilibrium) amounted to 680 nM in assay [1], 64 nM in assay [2] and 84 nM in assay [3]. Further, the koff (as a rule, the rate constant with which the complex falls apart) in assay [1] worked out at 0.0071 s⁻¹; in assay [2], 0.0041 s⁻¹; in assay [3] it was 0.0045 s⁻¹. Further, the figures for the on-rate constant (kon) in assay [2] and in assay [3] were 63000 M⁻¹ s⁻¹ and 54000 M⁻¹ s⁻¹, respectively.
